Experimental data taken from paper PMC6128908, “Potent PDZ-Domain PICK1 Inhibitors that Modulate Amyloid Beta-Mediated Synaptic Dysfunction” (Scientific Reports, 2018).
Where no end group is shown, it is not given here.

What was measured:
[1] = biological target: T1, His-MBP PICK1 construct (amino acids 1–356) (UniProt Q9NRD5 1-356); assay: FRET or BRET; high throughput screen with a FRET-based readout: His-MBP PICK1 (1–356) and FITC-labelled 9 amino acid GluA2 C-terminal peptide; compounds at 50 μM; conditions: both partners purified
T1 construct: it is used here for both assays; Details of the construct are in Supplemental Methods; also called truncated, dimeric form of PICK1 lacking the last 59 residues; source: baculovirus expression, purified (Nickel chromatography, size exclusion chromatography)
T1 sequence (Q9NRD5 1-356): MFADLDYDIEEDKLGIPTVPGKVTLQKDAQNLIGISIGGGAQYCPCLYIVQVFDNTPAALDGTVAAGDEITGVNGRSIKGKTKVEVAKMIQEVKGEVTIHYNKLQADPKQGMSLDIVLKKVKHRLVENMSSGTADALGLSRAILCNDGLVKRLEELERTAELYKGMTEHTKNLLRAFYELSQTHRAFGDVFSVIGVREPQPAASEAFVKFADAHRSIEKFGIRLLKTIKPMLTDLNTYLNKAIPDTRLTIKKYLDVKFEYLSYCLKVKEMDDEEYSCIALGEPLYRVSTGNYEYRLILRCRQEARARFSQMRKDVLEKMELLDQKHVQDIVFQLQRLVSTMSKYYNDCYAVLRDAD

[2] = biological target: T2, PSD95 protein (domains 1–2 in tandem; aminoacids 61–249) (UniProt P78352 61-249); assay: fluorescence polarisation; competition FP: FITC-labeled peptides fixed at 5 nM, non-saturating protein concentrations (PICK1 600 nM; PSD95 PDZ 1–2 8 µM; Shank3 8 µM), unlabeled peptides or compound varied; normalised to binding and tracer-only controls; conditions: both partners purified
T2 construct: PSD95 (postsynaptic density 95), PDZ domains 1-2 in tandem, amino acids 61-249; also called postsynaptic density 95 (PSD95) PDZ 1–2; source: E. coli, purified
T2 sequence (P78352 61-249): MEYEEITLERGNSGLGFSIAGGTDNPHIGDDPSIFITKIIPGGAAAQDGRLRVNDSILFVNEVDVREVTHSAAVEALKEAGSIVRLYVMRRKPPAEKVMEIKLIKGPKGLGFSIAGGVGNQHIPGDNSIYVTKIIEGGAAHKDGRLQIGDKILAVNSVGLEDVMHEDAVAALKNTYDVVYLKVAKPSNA

Row | binding result [1] | binding result [2] | Binder
1 | binds |  | VYGIESVKI (peptide, UniProt P42262 875-883, looked up, also: FITC label, position not given here, AMPA receptor subunit GluA2, C-terminal 9 amino acids, residues 875-883; also called GluA2 peptide; Fluorescein isothiocyanate-labeled peptide comprising the C-terminal amino acids of GluA2) [FITC-labeled 9 amino acid C-terminal peptide of GluA2 (875–883)]
2 |  | binds | KLSSIESDV (also: FITC label, position not given here, N-methyl-D-aspartate receptor subunit 2B (GluN2B), C-terminal amino acids 1474-1482) [FITC-labeled GluN2B peptide (N-methyl-D-aspartate receptor subunit 2B, 1474–1482)]
